Assay [1] deals with T1, elongated peptide SFSGYLLYPMA
T1 construct: Selection peptide with one more alanine at the C-terminus; synthetic (Chinese Peptide Company); also called elongated peptide (one additional amino acid)
T1 peptide: SFSGYLLYPMA
Kind of assay: C8-C competitive ELISA with HRP-labelled 13G5. On the procedure: (§1) ELISA-plates used for the assay development were Streptavidin-coated from Roche (cat.: 11940279). All ELISA plates were analyzed with the ELISA reader from Molecular Devices, SpectraMax M, (CA, USA). We labelled the selected monoclonal antibody with horseradish peroxidase (HRP) using the Lightning link HRP labelling kit according to the instructions of the manufacturer (Innovabioscience, Babraham, Cambridge, UK). A 96-well streptavidin plate was coated with biotinylated synthetic peptide biotin-[…] (SEQ ID NO: 25) (Chinese Peptide Company, China) dissolved in assay buffer (50 mM Trizma, 0.46 mM Tween 20, 0.08 mM Phenol Red, 34 mM NaCl, 0.36% Bronidox L5, 1% BSA, pH 7.4) and incubated 30 minutes at 20° C. 20 μL of standard peptide or samples diluted in assay buffer were added to appropriate wells, followed by 100 μL of HRP conjugated monoclonal antibody 13G5, and incubated 20 hour at 4° C. Finally, 100 μL tetramethylbenzinidine (TMB) (Kem-En-Tec cat.4380H) was added and the plate was incubated 15 minutes at 20° C. in the dark. All the above incubation steps included shaking at 300 rpm. After each incubation step the plate was washed five times in washing buffer (20 mM Tris, 50 mM NaCl). The TMB reaction was stopped by adding 100 μL of stopping solution (1% H₂SO₄) and measured at 450 nm with 650 nm as the reference. […]

The target of assay [2] is T2, nonsense peptide YLSGPFMSYL
T2 construct: Control peptide of the C8-C specificity test; also called nonsense peptide (C8-C)
T2 peptide: YLSGPFMSYL
The experiment in a line: C8-C competitive ELISA with HRP-labelled 13G5. On the procedure:
as §1
(In an ELISA, binding on a coated surface is turned into a signal by an enzyme label.)

B1: monoclonal antibody NB683-13G5 (antibody, mouse IgG1, kappa, V domains shown)
VH: EVLLQQSGPELEKPGASVKISCKASGYSLTDYNMNWVKQSDGKSLEWIGIIDPNYGDTNYNQKFKDKATLTVDKSSNTAHMQLKSLTSDDSAVYYCARSGYYGNSHYGLDYWGQGTSVTVSS
VL: QIVLTQSPAIMSASPGERVTMTCSVSSSVGYIHWYQQKSGTSPKRWISDTSKLASGVPSRFSGSGSGASYSLTIDRVEAEDAATYYCQQWSSNPPTFGGGTKLEMKR
notes: also called clone 13G5; monoclonal antibody 13G5
As to B1, the binding result in assay [1] and in assay [2] was “no binding” in each case.

The values above are taken from patent publication US20220196676A1 (NORDIC BIOSCIENCE A S, published 2022).
